Experimental data published in patent publication US20060263802A1 (CRUCELL HOLLAND B V, published 2006).

Columns and labels:
Test in all cases: PEPSCAN ELISA, looped peptide, 10 ug/ml
[1] = target: looped/cyclic peptide … (rabies virus strain ERA)
[2] = target: looped/cyclic peptide … (rabies virus strain ERA); remark: listed apart in the source
[3] = target: looped/cyclic peptide … (rabies virus strain ERA); remark: listed apart in the source
[4] = target: looped/cyclic peptide … (rabies virus strain ERA); remark: listed apart in the source
[5] = target: looped/cyclic peptide … (rabies virus strain ERA); remark: listed apart in the source
[6] = target: looped/cyclic peptide … (rabies virus strain ERA); remark: listed apart in the source
[7] = target: looped/cyclic peptide … (rabies virus strain ERA); remark: listed apart in the source
[8] = target: looped/cyclic peptide … (rabies virus strain ERA); remark: listed apart in the source
[9] = target: looped/cyclic peptide … (rabies virus strain ERA); remark: listed apart in the source
[10] = target: looped/cyclic peptide … (rabies virus strain ERA); remark: listed apart in the source
[11] = target: looped/cyclic peptide … (rabies virus strain ERA); remark: listed apart in the source
[12] = target: looped/cyclic peptide … (rabies virus strain ERA); remark: listed apart in the source
[13] = target: looped/cyclic peptide … (rabies virus strain ERA); remark: listed apart in the source
[14] = target: looped/cyclic peptide … (rabies virus strain ERA); remark: listed apart in the source
[15] = target: looped/cyclic peptide … (rabies virus strain ERA); remark: listed apart in the source
[16] = target: looped/cyclic peptide … (rabies virus strain ERA); remark: listed apart in the source
[17] = target: looped/cyclic peptide … (rabies virus strain ERA); remark: listed apart in the source
[18] = target: looped/cyclic peptide … (rabies virus strain ERA); remark: listed apart in the source
[19] = target: looped/cyclic peptide … (rabies virus strain ERA); remark: listed apart in the source
[20] = target: looped/cyclic peptide … (rabies virus strain ERA); remark: listed apart in the source
[21] = target: looped/cyclic peptide … (rabies virus strain ERA); remark: listed apart in the source
[22] = target: looped/cyclic peptide … (rabies virus strain ERA); remark: listed apart in the source
[23] = target: looped/cyclic peptide … (rabies virus strain ERA); remark: listed apart in the source
[24] = target: looped/cyclic peptide … (rabies virus strain ERA); remark: listed apart in the source
[25] = target: looped/cyclic peptide … (rabies virus strain ERA); remark: listed apart in the source
[26] = target: looped/cyclic peptide … (rabies virus strain ERA); remark: listed apart in the source
[27] = target: looped/cyclic peptide … (rabies virus strain ERA); remark: listed apart in the source
[28] = target: looped/cyclic peptide … (rabies virus strain ERA); remark: listed apart in the source
[29] = target: looped/cyclic peptide … (rabies virus strain ERA); remark: listed apart in the source
[30] = target: looped/cyclic peptide … (rabies virus strain ERA); remark: listed apart in the source
[31] = target: looped/cyclic peptide … (rabies virus strain ERA); remark: listed apart in the source
[32] = target: looped/cyclic peptide … (rabies virus strain ERA); remark: listed apart in the source
[33] = target: looped/cyclic peptide … (rabies virus strain ERA); remark: listed apart in the source
[34] = target: looped/cyclic peptide … (rabies virus strain ERA); remark: listed apart in the source
[35] = target: looped/cyclic peptide … (rabies virus strain ERA); remark: listed apart in the source
[36] = target: looped/cyclic peptide … (rabies virus strain ERA); remark: listed apart in the source
[37] = target: looped/cyclic peptide … (rabies virus strain ERA); remark: listed apart in the source
[38] = target: looped/cyclic peptide … (rabies virus strain ERA); remark: listed apart in the source
[39] = target: looped/cyclic peptide … (rabies virus strain ERA); remark: listed apart in the source
[40] = target: looped/cyclic peptide … (rabies virus strain ERA); remark: listed apart in the source
[41] = target: looped/cyclic peptide … (rabies virus strain ERA); remark: listed apart in the source
[42] = target: looped/cyclic peptide … (rabies virus strain ERA); remark: listed apart in the source
[43] = target: looped/cyclic peptide … (rabies virus strain ERA); remark: listed apart in the source
[44] = target: looped/cyclic peptide … (rabies virus strain ERA); remark: listed apart in the source
[45] = target: looped/cyclic peptide … (rabies virus strain ERA); remark: listed apart in the source
[46] = target: looped/cyclic peptide … (rabies virus strain ERA); remark: listed apart in the source
[47] = target: looped/cyclic peptide … (rabies virus strain ERA); remark: listed apart in the source
[48] = target: looped/cyclic peptide … (rabies virus strain ERA); remark: listed apart in the source
[49] = target: looped/cyclic peptide … (rabies virus strain ERA); remark: listed apart in the source
[50] = target: looped/cyclic peptide … (rabies virus strain ERA); remark: listed apart in the source
[51] = target: looped/cyclic peptide … (rabies virus strain ERA); remark: listed apart in the source
[52] = target: looped/cyclic peptide … (rabies virus strain ERA); remark: listed apart in the source
[53] = target: looped/cyclic peptide … (rabies virus strain ERA); remark: listed apart in the source
[54] = target: looped/cyclic peptide … (rabies virus strain ERA); remark: listed apart in the source
[55] = target: looped/cyclic peptide … (rabies virus strain ERA); remark: listed apart in the source
[56] = target: looped/cyclic peptide … (rabies virus strain ERA); remark: listed apart in the source
[57] = target: looped/cyclic peptide … (rabies virus strain ERA); remark: listed apart in the source
[58] = target: looped/cyclic peptide … (rabies virus strain ERA); remark: listed apart in the source
[59] = target: looped/cyclic peptide … (rabies virus strain ERA); remark: listed apart in the source
[60] = target: looped/cyclic peptide … (rabies virus strain ERA); remark: listed apart in the source
[61] = target: looped/cyclic peptide … (rabies virus strain ERA); remark: listed apart in the source

B1: human monoclonal antibody CRJB (antibody, V domains shown)
VH: QITLKETGPTLVKPTQTLTLTCTFSGFSLSTSGVGVGWIRQPPGKALEWVTLIYWDDDKRYSPSLENRVTIRKDTSKNQVALTMTNMDPLDTGTYYCAHRQHISSFPWFDSWGQGTLVTVSS
VL: SYVLTQPPSVSVAPGKTARINCGGNNIEYRSVHWYQQKSGQAPVAVIYDNSDRPSGIPERFSGSKSGNTATLTISRVEAGDEADYYCQVWDISSDVVFGGGTKLTVLG
[1]
  OD: 99 OD
[2]
  OD: 87 OD
[3]
  OD: 91 OD
[4]
  OD: 112 OD
[5]
  OD: 104 OD
[6]
  OD: 105 OD
[7]
  OD: 104 OD
[8]
  OD: 103 OD
[9]
  OD: 64 OD
[10]
  OD: 110 OD
[11]
  OD: 102 OD
[12]
  OD: 100 OD
[13]
  OD: 101 OD
[14]
  OD: 99 OD
[15]
  OD: 134 OD
[16]
  OD: 92 OD
[17]
  OD: 96 OD
[18]
  OD: 85 OD
[19]
  OD: 93 OD
[20]
  OD: 85 OD
[21]
  OD: 93 OD
[22]
  OD: 96 OD
[23]
  OD: 88 OD
[24]
  OD: 85 OD
[25]
  OD: 93 OD
[26]
  OD: 83 OD
[27]
  OD: 92 OD
[28]
  OD: 94 OD
[29]
  OD: 100 OD
[30]
  OD: 105 OD
[31]
  OD: 108 OD
[32]
  OD: 104 OD
[33]
  OD: 103 OD
[34]
  OD: 99 OD
[35]
  OD: 85 OD
[36]
  OD: 85 OD
[37]
  OD: 83 OD
[38]
  OD: 82 OD
[39]
  OD: 98 OD
[40]
  OD: 90 OD
[41]
  OD: 79 OD
[42]
  OD: 85 OD
[43]
  OD: 76 OD
[44]
  OD: 85 OD
[45]
  OD: 129 OD
[46]
  OD: 93 OD
[47]
  OD: 92 OD
[48]
  OD: 97 OD
[49]
  OD: 104 OD
[50]
  OD: 100 OD
[51]
  OD: 88 OD
[52]
  OD: 71 OD
[53]
  OD: 76 OD
[54]
  OD: 92 OD
[55]
  OD: 80 OD
[56]
  OD: 106 OD
[57]
  OD: 92 OD
[58]
  OD: 107 OD
[59]
  OD: 90 OD
[60]
  OD: 116 OD
[61]
  OD: 79 OD
